From FireProtDB (doi:10.1110/ps.8.7.1530) come the findings set out here.

To fix the notation:
B1: PTS system mannose-specific EIIAB component, P69797 (parent)
chain: MTIAIVIGTHGWAAEQLLKTAEMLLGEQENVGWIDFVPGENAETLIEKYNAQLAKLDTTKGVLFLVDTWGGSPFNAASRIVVDKEHYEVIAGVNIPMLVETLMARDDDPSFDELVALAVETGREGVKALKAKPVEKAAPAPAAAAPKAAPTPAKPMGPNDYMVIGLARIDDRLIHGQVATRWTKETNVSRIIVVSDEVAADTVRKTLLTQVAPPGVTAHVVDVAKMIRVYNNPKYAGERVMLLFTNPTDVERLVEGGVKITSVNVGGMAFRQGKTQVNNAVSVDEKDIEAFKKLNARGIELEVRKVSTDPKLKMMDLISKIDK

In this data set the parent is B1. As to conditions: Escherichia coli (strain K12); pH 7.4; 22 °C; GdnHCl; Fluorescence; Sodium phosphate 20 mM; reversible: yes; structure 1PDO; whole UniProt chain shown.

Regarding W12F W33F, the “denaturant midpoint (higher = more stable)” value (from here on “denaturant midpoint”) was found to be 2.2 M and the unfolding free energy came out at 10.8 kcal/mol.

For W33F W69F, the “denaturant midpoint” value is 1.8 M and the unfolding free energy amounted to 5.26 kcal/mol.

As to W33F, the “denaturant midpoint” value came to 2.2 M and the unfolding free energy is 8.37 kcal/mol.

Take W12F: the “denaturant midpoint” value came to 2.6 M and the unfolding free energy came to 14.1 kcal/mol.

For W69F, the “denaturant midpoint” value is 2.1 M and the unfolding free energy was determined as 6.22 kcal/mol.

With W12F W69F, the “denaturant midpoint” value was 2.1 M and the unfolding free energy was determined as 11 kcal/mol.
